Experimental findings from patent publication US20250282835A1 are described below.

Some targets named below: CytERm-mScarlet3; CytERm-mScarlet-I3; Cyterm fusion: dTomato; Cyterm fusion: mEGFP; Cyterm-TagRFP-T; Cyterm-mCherry; Cyterm-mScarlet; Cyterm-mScarlet-I.
Assay in all cases: cell-based or functional assay

For the substance CytERm-mScarlet3, the % cells with OSER in the test with CytERm-mScarlet3 came out at 7%.
With CytERm-mScarlet-I3, the % cells with OSER with CytERm-mScarlet-I3 was determined as 5%.
In the test with Cyterm fusion: dTomato, Cyterm fusion: dTomato yielded a % cells with OSER of 82%.
Substance Cyterm fusion: mEGFP returned a % cells with OSER in the test with Cyterm fusion: mEGFP of 11%.
The substance Cyterm-TagRFP-T came in with a % cells with OSER with Cyterm-TagRFP-T of 64%.
For Cyterm-mCherry, in the test with Cyterm-mCherry, the % cells with OSER worked out at 18%.
Consider Cyterm-mScarlet, for which, in the test with Cyterm-mScarlet, the % cells with OSER was 8%.
With Cyterm-mScarlet-I, in the test with Cyterm-mScarlet-I, the % cells with OSER was 8%.
